PMC2817469

What was measured:
[1] = target: T1, Dna2 E675A (nuclease-defective) (UniProt P38859 1-1522, E675A); assay: EMSA
[2] = target: T1, Dna2 E675A (nuclease-defective); assay: DNase I footprinting
[3] = target: T1, Dna2 E675A (nuclease-defective); assay: competition
[4] = target: T1, Dna2 E675A (nuclease-defective); assay: competition; remark: listed apart in the source

T1 sequence (P38859 whole entry E675A): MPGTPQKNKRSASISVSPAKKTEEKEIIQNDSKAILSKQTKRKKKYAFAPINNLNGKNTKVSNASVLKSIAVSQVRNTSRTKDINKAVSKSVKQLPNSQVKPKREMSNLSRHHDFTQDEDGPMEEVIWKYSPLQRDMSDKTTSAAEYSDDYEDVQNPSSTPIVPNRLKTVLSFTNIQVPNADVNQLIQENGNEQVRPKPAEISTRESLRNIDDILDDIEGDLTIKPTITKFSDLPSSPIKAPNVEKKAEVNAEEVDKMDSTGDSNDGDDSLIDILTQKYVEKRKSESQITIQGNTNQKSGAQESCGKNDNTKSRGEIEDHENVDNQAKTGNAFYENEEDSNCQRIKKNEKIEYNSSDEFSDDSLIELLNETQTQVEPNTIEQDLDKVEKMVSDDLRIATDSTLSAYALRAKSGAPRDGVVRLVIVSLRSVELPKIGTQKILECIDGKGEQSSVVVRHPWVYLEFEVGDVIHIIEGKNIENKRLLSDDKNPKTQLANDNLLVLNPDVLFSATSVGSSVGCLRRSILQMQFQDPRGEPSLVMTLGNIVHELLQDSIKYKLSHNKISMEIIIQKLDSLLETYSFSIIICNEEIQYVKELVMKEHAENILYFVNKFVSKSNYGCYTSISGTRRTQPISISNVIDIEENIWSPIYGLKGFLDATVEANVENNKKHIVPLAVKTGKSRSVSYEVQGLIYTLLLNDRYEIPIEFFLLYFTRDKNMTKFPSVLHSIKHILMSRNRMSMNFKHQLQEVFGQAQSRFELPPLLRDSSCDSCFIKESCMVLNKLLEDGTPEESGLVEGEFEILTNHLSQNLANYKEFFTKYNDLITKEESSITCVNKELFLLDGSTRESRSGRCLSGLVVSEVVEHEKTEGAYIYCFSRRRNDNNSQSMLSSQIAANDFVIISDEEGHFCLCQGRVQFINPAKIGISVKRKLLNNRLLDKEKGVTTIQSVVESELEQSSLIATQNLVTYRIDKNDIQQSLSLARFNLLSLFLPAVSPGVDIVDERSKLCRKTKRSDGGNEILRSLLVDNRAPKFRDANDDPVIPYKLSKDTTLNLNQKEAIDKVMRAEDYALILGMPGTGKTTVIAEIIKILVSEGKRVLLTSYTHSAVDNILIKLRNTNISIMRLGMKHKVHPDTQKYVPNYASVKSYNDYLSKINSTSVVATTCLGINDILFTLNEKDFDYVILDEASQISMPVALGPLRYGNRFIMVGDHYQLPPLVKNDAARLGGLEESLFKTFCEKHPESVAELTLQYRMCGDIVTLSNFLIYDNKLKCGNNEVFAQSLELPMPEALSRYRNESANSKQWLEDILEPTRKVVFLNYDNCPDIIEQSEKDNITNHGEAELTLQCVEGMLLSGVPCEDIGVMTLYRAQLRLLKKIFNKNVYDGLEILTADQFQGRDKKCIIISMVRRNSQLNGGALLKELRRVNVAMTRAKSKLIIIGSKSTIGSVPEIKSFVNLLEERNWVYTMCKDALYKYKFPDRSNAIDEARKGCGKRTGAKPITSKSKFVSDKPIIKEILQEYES

B1: 5'-Tail (structured_DNA)
DNA: TTCACGAGATTTACTTATTTCACTGCGGCTACATGATGCATCGTTAGGCGATTCCGCCTAACGATGCATCATGT
Work on B1 yielded a Kd [1] of 8.5 nM.

B2: Fork (structured_DNA)
DNA: TTCACGAGATTTACTTATTTCACTGCGGCTACATGATGCATCGTTAGGCGATTCCGCCTAACGATGCATCATGTTGTTACCCTTTGA
Binder B2 has a Kd [1] of 9.2 nM.

B3: Gap (20-nt) (structured_DNA)
DNA: ACATGATGCATCGTTAGGCGATTCCGCCTAACGATGCATCATGTTTTTTTTTTTTTTTTTTTTTCGCGAACCCTATTTAGGGTTCGCG
Work on B3 yielded a Kd [1] of 6.7 nM.

B4: Nick (structured_DNA)
DNA: ACATGATGCATCGTTAGGCGATTCCGCCTAACGATGCATCATGTCGCGAACCCTATTTAGGGTTCGCG
B4: binds [2].

B5: Flap (30-nt 5'-flap) (structured_DNA)
DNA: TTCACGAGATTTACTTATTTCACTGCGGCTACATGATGCATCGTTAGGCGATTCCGCCTAACGATGCATCATGTCGCGAACCCTATTTAGGGTTCGCG
B5 showed a Kd [1] of 8.4 nM.

B6: Biotin-Flap, streptavidin-blocked (structured_DNA)
DNA: B5 DNA
modifications: 5' biotin
B6: binds [3].

B7: Double-Flap (structured_DNA)
DNA: TTCACGAGATTTACTTATTTCACTGCGGCTACATGATGCATCGTTAGGCGATTCCGCCTAACGATGCATCATGTCGCGAACCCTATTTAGGGTTCGCGT
B7 gave a Kd [1] of 7 nM.

TTCACGAGATTTACTTATTTCACTGCGGCT (ssDNA) [ssDNA 30-nt]: binds [4].
